Columns and labels:
[1] = target: T1, human ILT4 expressed on cells (human, UniProt Q8N423 22-597); test: cell-based or functional assay
[2] = target: T1, human ILT4 expressed on cells; test: flow based HLA-G blocking assay
[3] = target: T2, recombinant human ILT4 (LILRB2) (human, UniProt Q8N423 22-460); test: SPR, high resolution kinetics; reference Hz156
T2 construct: Bought protein (Acro Biosystems or R&D Systems); also called ILTR4

[4] = target: T2, recombinant human ILT4 (LILRB2); test: SPR, high resolution kinetics, triplicate, LALA antibody
[5] = target: T2, recombinant human ILT4 (LILRB2); test: SPR, high resolution kinetics, triplicate, LALA antibody; 95% CI in parentheses
[6] = target: T2, recombinant human ILT4 (LILRB2); test: SPR, Biacore T200, mAb captured on anti-Fc, ILT4 injected, medium resolution, 25 C
Procedure, shortened: (§1)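 Mouse, chimeric or humanized mAbs captured on anti-Fc surfaces (CM4 chip); ILT4 injected at 101 to 0.79 nM, 2-fold series, 90 s association, 1200 s dissociation. Run at 25° C in HBS-P+ pH 7.4 with 100 μg/ml BSA; double-referenced global 1:1 fit with mass-transport term, KD=koff/kon.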

[7] = target: T1, human ILT4 expressed on cells; test: flow cytometry, blockade of PE-HLA-G tetramer binding to ILT4-CHO cells, Experiment 2
[8] = target: T1, human ILT4 expressed on cells; test: flow cytometry on ILT4-CHO cells, unlabelled mAb titrated; competitor AF647-Hz45.01-LALA
Description: Competition binding assays were performed. […] Binding activities were measured by flow cytometry.
Anti-human ILT4 mAbs at various concentrations (0-15 μg/ml) were incubated with ILT4-CHO cells. Cells were washed and stained with AF647-Hz45.01-LALA. Cells were analyzed by flow cytometry.

[9] = target: T1, human ILT4 expressed on cells; test: flow cytometry, direct binding of AF647-labelled antibody (0-10 µg/ml) to ILT4-CHO cells
Description: AF647-Hz45.01-LALA and AF647-Hz156.03-LALA at various concentrations (0-10 μg/ml) were incubated with ILT4-CHO cells and analyzed by flow cytometry.

[10] = target: T2, recombinant human ILT4 (LILRB2); test: SPR, Biacore 8K, mAb captured on anti-human Fc, LILRB2 at 100 nM; legend: +++ binding (1-2 nM KD)
Description: (§2) SPR was used to determine the specificity of four humanized anti-ILT4 mAbs for binding to LILRB2 and to determine any cross-reactivity with nine other LILRA and LILRB family members. LILR proteins were purchased from Acro Biosystems or R&D Systems, with sequence provided below. The studies were performed with a Biacore 8K instrument using a CM4 sensor chip with a running buffer of HBS-P+, 100 μg/mL BSA. Anti-human Fc specific capture surfaces were prepared using standard amine coupling chemistry. MAb was captured to flow cell 2 with flow cell 1 serving as the reference flow cell. Each of the nine family members and LILRB2 were injected at 100 nM at 30 μL/min for 90 sec with 240 sec of dissociation. […] All sensorgrams were doubled-referenced during processing of the data.

[11] = target: T1, human ILT4 expressed on cells; test: flow cytometry, blockade of PE-HLA-A tetramer (5 ug/ml) binding to ILT4-CHO cells, Experiment 3 (table title prints HLA-G)
[12] = target: T2, recombinant human ILT4 (LILRB2); test: SPR, Biacore T200, medium resolution; koff held at its limit of 4.27e-5 s^-1
Procedure, shortened: as §1

[13] = target: T2, recombinant human ILT4 (LILRB2); test: SPR, Biacore 8K, mAb captured on anti-human Fc, LILRB2 at 100 nM; legend: ++++ tight binding (<100 pM KD)
Description: as §2

T2 sequence (Q8N423 other isoform, or with tags, fused parts or gaps limits assumed): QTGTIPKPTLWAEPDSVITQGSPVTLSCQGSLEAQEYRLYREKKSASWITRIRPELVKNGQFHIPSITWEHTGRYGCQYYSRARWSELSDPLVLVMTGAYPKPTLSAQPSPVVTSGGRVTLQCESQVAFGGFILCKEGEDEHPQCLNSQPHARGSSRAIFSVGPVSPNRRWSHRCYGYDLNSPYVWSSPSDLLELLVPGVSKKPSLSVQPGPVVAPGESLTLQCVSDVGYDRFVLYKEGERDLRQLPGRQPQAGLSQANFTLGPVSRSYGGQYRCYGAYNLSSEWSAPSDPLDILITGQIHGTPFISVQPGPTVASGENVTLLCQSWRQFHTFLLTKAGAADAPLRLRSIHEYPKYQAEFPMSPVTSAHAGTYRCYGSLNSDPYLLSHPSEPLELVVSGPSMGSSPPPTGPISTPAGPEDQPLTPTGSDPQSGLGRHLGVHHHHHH
T1 sequence (Q8N423 22-597): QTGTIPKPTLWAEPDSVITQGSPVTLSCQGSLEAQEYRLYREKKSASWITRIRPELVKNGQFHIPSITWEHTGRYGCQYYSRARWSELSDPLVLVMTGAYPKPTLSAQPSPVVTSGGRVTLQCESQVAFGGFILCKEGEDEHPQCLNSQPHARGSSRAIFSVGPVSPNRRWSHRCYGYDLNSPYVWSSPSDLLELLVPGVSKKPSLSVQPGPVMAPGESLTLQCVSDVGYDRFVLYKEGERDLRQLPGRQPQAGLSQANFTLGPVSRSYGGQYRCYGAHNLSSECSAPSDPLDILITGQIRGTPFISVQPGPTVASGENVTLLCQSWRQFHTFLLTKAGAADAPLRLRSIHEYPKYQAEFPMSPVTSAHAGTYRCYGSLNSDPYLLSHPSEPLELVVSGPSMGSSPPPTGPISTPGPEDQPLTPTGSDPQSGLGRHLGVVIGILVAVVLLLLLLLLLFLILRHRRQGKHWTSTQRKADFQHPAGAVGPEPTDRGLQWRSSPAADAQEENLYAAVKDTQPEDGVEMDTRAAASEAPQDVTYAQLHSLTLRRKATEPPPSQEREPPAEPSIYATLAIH

B1: Hz45.01-LALA (antibody, human IgG1, kappa, L234A L235A, V domains shown)
VH: QVQLVQSGAEVKKPGASVKVSCKASGYTFTDYYMNWVRQAPGQRLEWIGDINPNNGGTSYNQKFKGRATITVDTSASTAYMELSSLRSEDTAVYYCARGGAELTGTYWYFDVWGQGTTVTVSS
VL: DIQMTQSPSSLSASVGDRVTITCRASENIYSNLAWYQQKPGKAPKVLVYGATNLADGVPSRFSGSGSGTEYTLTISSLQPEDFATYYCQHFWDSPFTFGGGTKVEIKR
notes: Humanized L45S4, human IgG1 L234A/L235A, kappa; also called Humanized 45_01; Hu IgG 45_01 LALA
- EC50 value of IL-6 production, donor 4 [1]: 0.00603 µg/mL
- EC50 value of IL-6 production, donor 5 [1]: 0.0159 µg/mL
- IC50 [2]: 0.092 µg/mL
- fold faster off-rate than Hz156 [3]: 29 fold
- Kd [4]: 154 pM
- koff [4]: 0.000531 s⁻¹
- kon [5]: 3.45e+06 M⁻¹ s⁻¹
- Kd [6]: 1270 pM
- koff [6]: 0.000418 s⁻¹
- kon [6]: 330000 M⁻¹ s⁻¹
- IC50 [7]: 0.119 µg/mL
- IC50 [8]: 0.31 µg/mL
- EC50 (read off the curve) [9]: ~0.2 µg/mL
- KD [10]: 1000 to 2000 pM
- IC50 [11]: 0.109 µg/mL

B2: Hz156.03-LALA (antibody, human IgG1, kappa, L234A L235A, V domains shown)
VH: QVQLVQSGAEVKKPGSSVKVSCKASGYTFTDYYMNWVRQAPGQGLEWIARIYPGVYRTHYNEKFKDRVTLTADKSTSTAYMELSSLRSEDTAVYYCARSGYYGGTYEEDAMDYWGQGTTVTVSS
VL: DIQMTQSPSSLSASVGDRVTITCRASENIYSNLAWYQQKPGKAPKLLVYAATSLADGVPSRFSGSGSGTDYTLTISSLQPEDFATYYCQNFWDTPYTFGQGTKVEIKR
notes: Humanized L156S3, human IgG1 L234A/L235A, kappa
- EC50 value of IL-6 production, donor 4 [1]: 0.0082 µg/mL
- EC50 value of IL-6 production, donor 5 [1]: 0.0213 µg/mL
- IC50 [2]: 0.212 µg/mL
- Kd [4]: 5.7 pM
- koff [4]: 1.83e-05 s⁻¹
- Kd [12]: ≤ 86 pM
- koff [12]: ≤ 4.27e-05 s⁻¹
- kon [5]: 3.22e+06 M⁻¹ s⁻¹
- kon [6]: 497000 M⁻¹ s⁻¹
- IC50 [7]: 0.14 µg/mL
- IC50 [8]: 0.245 µg/mL
- EC50 (read off the curve) [9]: ~0.2 µg/mL
- KD [13]: < 100 pM
- IC50 [11]: 0.164 µg/mL
